These results are taken from patent US20140030286A1 (COMMISSARIAT A L ENERGIE ATOMIQUE ET AUX ENERGIES …, published 2014).

Series [1] deals with T1, In (derivative of In without His tag, co-expressed with HisJo) (Streptococcus pneumoniae).
T1 construct: Expressed from MCSII of pETDuet (pETDuet-In, pETDuet-HisJoIn); also called In peptide
T1 chain: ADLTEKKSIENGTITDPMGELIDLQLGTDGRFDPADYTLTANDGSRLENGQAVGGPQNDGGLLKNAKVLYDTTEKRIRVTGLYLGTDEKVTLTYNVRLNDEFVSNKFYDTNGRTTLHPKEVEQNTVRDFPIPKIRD
Put plainly: electrospray mass spectrometry of the purified complex (measured 25589, calculated 25606.03; loss of 17 Da).

Another series concerns the target T2, HisIn (Streptococcus pneumoniae).
T2 construct: Recombinant, made in E. coli from pACYCDuet-HisIn; also called In peptide; In protein
T2 chain: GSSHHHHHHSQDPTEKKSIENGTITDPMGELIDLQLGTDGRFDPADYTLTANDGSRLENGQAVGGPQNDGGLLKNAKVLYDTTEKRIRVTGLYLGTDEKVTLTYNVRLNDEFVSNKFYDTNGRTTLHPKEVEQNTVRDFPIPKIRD
Put plainly: electrospray mass spectrometry of the purified complex (measured 26772, calculated 26788.16).

Series [2] deals with the molecule itself. The series can be described thus: gel filtration (S200 10/300GL), self-association.
Series [3] deals with the molecule itself. The series can be described thus: SDS-PAGE with and without 25 mM DTT, disulphide-linked homodimer (FIG. 12).

B1: HisJo (peptide)
chain: GSSHHHHHHSQDPSDQYPQTGTYPDVQTPYQIIKVDGSEKNGQHKALNPNPYERVIPEGTLSKRIYQVNNLDDNQYGIELTVSGKTVYEQKD
notes: Recombinant, made in E. coli from pETDuet-HisJo; The Jo peptide is RrgA 144-218; the derivative has two more residues at each end; also called Jo peptide; Jo protein
Take B1: the binding result (in series [1]; in the series with HisIn) was “binds” in each case.

B2: FusJoIn (other)
chain: GSSHHHHHHSQDPSDQYPQTGTYPDVQTPYQIIKVDGSEKNGQHKALNPNPYERVIPEGTLSKRIYQVNNLDDNQYGIELTVSGKTVYEQKDGSTPGSVTEKKSIENGTITDPMGELIDLQLGTDGRFDPADYTLTANDGSRLENGQAVGGPQNDGGLLKNAKVLYDTTEKRIRVTGLYLGTDEKVTLTYNVRLNDEFVSNKFYDTNGRTTLHPKEVEQNTVRDFPIPKIRD
notes: Single chain with the isopeptide bond inside the chain; Used as the control for the dimerisation of Jo-B1CK-In; also called FusJoIn complex; Jo-In fused via a linker of 7 amino acids
With B2, in series [2], the binding result is listed as “no binding”.

B3: Jo-B1CK-In (other)
chain: MGSSHHHHHHSQDPSDQYPQTGTYPDVQTPYQIIKVDGSEKNGQHKALNPNPYERVIPEGTLSKRIYQVNNLDDNQYGIELTVSGKTVYEQKDGIPEISQRTTIVIQKQTFISQHSCVNSTELDELIQQIVAAINAGIIPLGNTSNQISKLTEKKSIENGTITDPMGELIDLQLGTDGRFDPADYTLTANDGSRLENGQAVGGPQNDGGLLKNAKVLYDTTEKRIRVTGLYLGTDEKVTLTYNVRLNDEFVSNKFYDTNGRTTLHPKEVEQNTVRDFPIPKIRD
notes: Circularised within the chain by the Jo-In isopeptide bond; Forms a disulphide-linked dimer through the cysteine of the B1CK loop; also called fusion Jo-B1CK-In; recombinant protein Jo-B1CK-In
In the case of B3, the binding result in series [3] is recorded as “binds”.
